This test addresses T1, pallilysin (Tp0751_C24-P237) (Treponema pallidum, UniProt O83732 24-237).
T1 sequence (looked up): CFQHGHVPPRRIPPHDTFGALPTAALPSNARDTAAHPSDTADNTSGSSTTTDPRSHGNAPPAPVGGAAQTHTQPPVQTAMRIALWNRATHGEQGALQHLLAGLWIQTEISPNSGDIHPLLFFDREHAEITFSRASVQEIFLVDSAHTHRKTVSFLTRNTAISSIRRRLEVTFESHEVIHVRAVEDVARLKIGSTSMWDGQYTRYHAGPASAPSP
The test is described as follows: dynamic light scattering.

B1: recombinant Tp0750_G23-D223 (natural protein, UniProt O83731 23-223, looked up)
chain: GERTVPVDIFLMIDKSRSMQEPGKFSSLHRWVRDEFVSSMTIQGDWITVYQFYEKPEELITLTLRSEQDRDKIISVVDSIVPNGRYTDIGRALDTVWEIQEKRKDNNRHKVLLLVTDLEHDAPLTSKYRGKQRSFQSPYLVRARRVKHDNWYEITLDMAVHDRVAHTARELYRSIAAAHSKRPTPTPPAKESSPRYTPSLD
Turning to B1, the binding result is “binds”.

Source of the values: paper PMC3954913 (Molecular microbiology, 2014).
